Measured values taken from article PMC6030205, “The REN4 rheostat dynamically coordinates the apical and lateral domains of Arabidopsis pollen tubes” (Nature Communications, 2018).

Target: T1, MBP-REN4 (Arabidopsis, UniProt O48716 1-465)
T1 construct: REN4, Arabidopsis, AT2G26490; full length REN4 CDS with stop codon (465 aa) in pDest-566; CDS with stop codon in pDest-566 (Addgene) implies an N-terminal MBP; that vector may also add a His6 tag (surmise); also called REN4 fused with MBP; source: E. coli, purified (amylose beads)
T1 sequence (looked up): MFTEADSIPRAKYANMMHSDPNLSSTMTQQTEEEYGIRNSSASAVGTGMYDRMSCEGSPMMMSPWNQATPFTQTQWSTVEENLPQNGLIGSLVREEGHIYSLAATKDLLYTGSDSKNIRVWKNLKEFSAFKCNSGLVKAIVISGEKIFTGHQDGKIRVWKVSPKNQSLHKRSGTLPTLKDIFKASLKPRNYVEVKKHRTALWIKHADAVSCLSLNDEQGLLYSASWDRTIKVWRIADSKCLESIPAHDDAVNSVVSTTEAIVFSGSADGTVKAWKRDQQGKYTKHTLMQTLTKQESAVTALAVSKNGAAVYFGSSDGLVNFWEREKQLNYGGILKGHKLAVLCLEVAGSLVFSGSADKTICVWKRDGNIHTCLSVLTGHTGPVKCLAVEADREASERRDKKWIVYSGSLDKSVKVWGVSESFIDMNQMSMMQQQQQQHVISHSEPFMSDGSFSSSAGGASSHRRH
Assay: pull-down; MBP-REN4 on amylose agarose beads; about 1 ug GST-ROP1 preloaded with 1 mM GTP or GDP; binding buffer 50 mM Tris-HCl pH 7.5, 10 mM MgCl2, 1 mM DTT, 10 mg/ml BSA, 5 mM EDTA; 4 C, 1 h; washes with 1% Triton X-100; anti-GST and anti-MBP blots
Conditions: both partners purified

binding result: binds
B1: GST-CA-ROP1 (G15V), GTP-bound constitutively active form of ROP1 (natural protein)
chain: not shown
notes: ROP1, Arabidopsis; full length ROP1 CDS with stop codon, mutated G15V, in pDest15; Incubated with 1 mM GTP before the pull-down; source: E. coli, purified (glutathione-agarose); not shown: GST, N-terminal, kept
